In data set [1] the target is RAD52 (untagged, pET11a);DSS1 (Homo sapiens;Homo sapiens, UniProt P43351;P60896 1-418;1-70, |). Kind of data set: stopped-flow fluorescence; 1:1 complex; sign change at 0.1-0.25 uM; ssDNA EMSA: 30 mM Tris-acetate pH 7.5, 1 mM DTT, RT, 0.1% glutaraldehyde; FRET: same buffer + 0.1 mg/ml BSA, 25 C; dsDNA EMSA: 30 mM KPi pH 7.4, 1 mM DTT, 0.01. Conditions: protein: recombinant;recombinant; tags: none;GST removed by thrombin; label: Cy3; single strand.

Data set [2] addresses T1, RAD52 (untagged, pET11a) (Homo sapiens, UniProt P43351 1-418).
T1 sequence: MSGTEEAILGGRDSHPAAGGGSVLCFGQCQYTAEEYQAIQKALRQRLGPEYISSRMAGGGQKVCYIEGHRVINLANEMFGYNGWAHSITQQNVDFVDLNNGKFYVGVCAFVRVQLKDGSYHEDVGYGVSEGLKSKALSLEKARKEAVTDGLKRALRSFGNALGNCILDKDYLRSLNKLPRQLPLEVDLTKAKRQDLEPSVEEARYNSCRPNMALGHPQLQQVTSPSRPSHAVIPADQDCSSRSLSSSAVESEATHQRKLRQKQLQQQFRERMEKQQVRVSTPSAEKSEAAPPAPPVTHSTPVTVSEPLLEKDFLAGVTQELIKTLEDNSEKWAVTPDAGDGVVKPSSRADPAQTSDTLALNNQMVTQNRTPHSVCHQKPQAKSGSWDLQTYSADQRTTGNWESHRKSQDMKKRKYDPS
The data set can be described thus: stopped-flow fluorescence; 0.05-2.0 uM RAD52; smaller amplitude, lower affinity than with DSS1; sign change at ~0.5 uM; ssDNA EMSA: 30 mM Tris-acetate pH 7.5, 1 mM DTT, RT, 0.1% glutaraldehyde; FRET: same buffer + 0.1 mg/ml BSA, 25 C; dsDNA EMSA: 30 mM KPi pH 7.4, 1 mM DTT, 0.01. Conditions: protein: recombinant; tags: none; label: Cy3; single strand. On the technique in general: A gel shift assay detects complexes by their altered migration in electrophoresis.

Sequence of RAD52 (untagged, pET11a);DSS1 (P60896 whole entry, one chain of several): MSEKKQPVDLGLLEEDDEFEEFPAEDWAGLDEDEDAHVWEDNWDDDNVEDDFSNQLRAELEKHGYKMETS

With TTTTTTTTTTTTTTTTTTTTTTTTTTTTTTTTT (ssDNA) [Cy3-dT33 (pR1255)], the binding result in data set [1] and in data set [2] was “binds” each time.

The values above are taken from paper PMC6954417, “DSS1 interacts with and stimulates RAD52 to promote the repair of DSBs”.
